B1: murine MAdCAM-1 (receptor, UniProt Q61826 22-405, looked up)
chain: QSFQVNPPESEVAVAMGTSLQITCSMSCDEGVARVHWRGLDTSLGSVQTLPGSSILSVRGMLSDTGTPVCVGSCGSRSFQHSVKILVYAFPDQLVVSPEFLVPGQDQVVSCTAHNIWPADPNSLSFALLLGEQRLEGAQALEPEQEEEIQEAEGTPLFRMTQRWRLPSLGTPAPPALHCQVTMQLPKLVLTHRKEIPVLQSQTSPKPPNTTSAEPYILTSSSTAEAVSTGLNITTLPSAPPYPKLSPRTLSSEGPCRPKIHQDLEAGWELLCEASCGPGVTVRWTLAPGDLATYHKREAGAQAWLSVLPPGPMVEGWFQCRQDPGGEVTNLYVPGQVTPNSSSTVVLWIGSLVLGLLALVFLAYRLWKCYRPGPRPDTSSCTHL
notes: whole, on cells; CHO cells transfected with murine MAdCAM-1; also called mucosal addressin cell adhesion molecule

What was measured:
[1] = biological target: human CCR4 (human) (UniProt P51679); experiment: cell-based or functional assay
human CCR4 (human), sequence (P51679 whole entry): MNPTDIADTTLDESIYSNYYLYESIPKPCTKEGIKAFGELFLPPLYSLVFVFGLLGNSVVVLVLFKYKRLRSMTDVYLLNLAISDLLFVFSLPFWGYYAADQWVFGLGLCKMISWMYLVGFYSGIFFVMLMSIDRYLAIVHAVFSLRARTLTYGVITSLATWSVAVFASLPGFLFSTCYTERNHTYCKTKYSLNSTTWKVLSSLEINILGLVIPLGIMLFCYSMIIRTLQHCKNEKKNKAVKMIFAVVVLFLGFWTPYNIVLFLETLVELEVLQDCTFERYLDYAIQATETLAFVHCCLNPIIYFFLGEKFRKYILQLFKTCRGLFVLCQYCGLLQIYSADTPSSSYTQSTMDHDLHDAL

[2] = biological target: T1, integrin α4β7 (human, UniProt P13612 34-1032; P26010 20-798); experiment: cell adhesion to MAdCAM-1 transfectants, elution with 0.5mM EDTA
T1 construct: whole, on cells; also called a4p7
T1 sequence (P13612 34-1032, chain 1 of 2): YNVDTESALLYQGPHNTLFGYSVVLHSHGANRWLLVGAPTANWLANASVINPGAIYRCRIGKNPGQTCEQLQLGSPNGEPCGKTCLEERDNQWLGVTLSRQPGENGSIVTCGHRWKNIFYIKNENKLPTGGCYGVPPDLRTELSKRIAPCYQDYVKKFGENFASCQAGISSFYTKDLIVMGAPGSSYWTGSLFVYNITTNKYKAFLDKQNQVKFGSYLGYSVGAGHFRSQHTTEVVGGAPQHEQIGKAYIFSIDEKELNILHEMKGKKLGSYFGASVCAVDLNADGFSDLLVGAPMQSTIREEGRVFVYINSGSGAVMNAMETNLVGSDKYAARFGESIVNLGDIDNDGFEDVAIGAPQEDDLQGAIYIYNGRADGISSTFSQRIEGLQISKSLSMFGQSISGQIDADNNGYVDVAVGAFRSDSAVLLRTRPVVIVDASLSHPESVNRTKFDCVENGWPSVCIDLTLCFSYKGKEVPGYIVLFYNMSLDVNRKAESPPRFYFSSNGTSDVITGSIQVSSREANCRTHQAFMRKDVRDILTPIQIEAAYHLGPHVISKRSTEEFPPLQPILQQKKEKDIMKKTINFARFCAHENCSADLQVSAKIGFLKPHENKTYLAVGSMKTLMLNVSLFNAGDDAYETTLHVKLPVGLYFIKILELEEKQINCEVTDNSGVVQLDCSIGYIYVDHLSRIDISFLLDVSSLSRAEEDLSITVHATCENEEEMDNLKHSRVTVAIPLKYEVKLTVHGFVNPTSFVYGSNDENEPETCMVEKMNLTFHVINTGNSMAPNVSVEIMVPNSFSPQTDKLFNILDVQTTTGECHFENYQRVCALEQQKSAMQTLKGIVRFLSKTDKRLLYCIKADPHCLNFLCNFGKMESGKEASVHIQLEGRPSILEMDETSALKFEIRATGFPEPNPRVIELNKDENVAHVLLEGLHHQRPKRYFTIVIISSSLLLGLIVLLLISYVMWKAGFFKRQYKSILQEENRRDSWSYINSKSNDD
T1 sequence (P26010 20-798, chain 2 of 2): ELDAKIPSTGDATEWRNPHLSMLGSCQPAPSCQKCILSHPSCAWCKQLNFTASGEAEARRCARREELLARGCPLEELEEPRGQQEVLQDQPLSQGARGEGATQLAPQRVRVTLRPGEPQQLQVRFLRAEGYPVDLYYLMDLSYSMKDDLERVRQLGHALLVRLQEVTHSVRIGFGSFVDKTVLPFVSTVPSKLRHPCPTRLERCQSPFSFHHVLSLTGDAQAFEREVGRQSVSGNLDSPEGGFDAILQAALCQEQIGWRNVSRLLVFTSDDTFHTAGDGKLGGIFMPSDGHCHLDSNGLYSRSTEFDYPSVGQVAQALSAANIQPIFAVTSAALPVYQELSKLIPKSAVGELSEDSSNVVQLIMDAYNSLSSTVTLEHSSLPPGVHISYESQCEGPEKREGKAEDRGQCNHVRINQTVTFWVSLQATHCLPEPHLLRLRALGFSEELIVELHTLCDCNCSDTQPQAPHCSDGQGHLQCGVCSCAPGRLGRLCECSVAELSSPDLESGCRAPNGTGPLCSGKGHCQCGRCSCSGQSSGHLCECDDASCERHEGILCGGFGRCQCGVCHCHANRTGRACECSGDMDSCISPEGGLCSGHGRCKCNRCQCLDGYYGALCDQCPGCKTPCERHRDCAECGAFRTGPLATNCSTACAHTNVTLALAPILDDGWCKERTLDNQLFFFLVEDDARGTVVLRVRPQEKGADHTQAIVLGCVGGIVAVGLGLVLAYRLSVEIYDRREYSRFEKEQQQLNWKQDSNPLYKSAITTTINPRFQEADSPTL

| Molecule | rapid adhesion of α4β7(-) memory CD4+ lymphocytes to immobilized ICAM-1 (static assay, TARC at 1 µM) (% of input cells) [1] | binding result [2] |
| --- | --- | --- |
| human TARC (thymus and activation-regulated chemokine) (from UniProt Q92583 24-94) (ligand) | < 50 |  |
| B1 |  | binds |

— patent US20020019341A1 (Stanford University, published 2002)
